# According to patent publication US20060021073A1:
# Target: Rab3
# Assay: cell-based or functional assay
substance,measurement,value
wild-type Noc2 expressed from adenovirus Ad-Noc2 wt in pancreatic islets of Noc2-/- mice (from UniProt Q768S4 1-302),Ca2+-triggered insulin secretion in cultured pancreatic islets of Noc2-/- mice (ng/islet/30 min),1.2
